Response data for three variants are collected here from article PMC10797690, “The SIRT3-ATAD3A axis regulates MAM dynamics and mitochondrial calcium homeostasis in cardiac hypertrophy” (International Journal of Biological Sciences, 2024).

To fix the notation:
B1: ATAD3A-Flag [not stated] / itself (parent)
chain: MSWLFGIKGPKGEGTGPPLPLPPAQPGAESGGDRGAGDRPSPKDKWSNFDPTGLERAAKAARELEHSRHAKEALNLAQMQEQTLQLEQQSKLKEYEAAVEQLKSEQIRVQAEERRKTLNEETRQHQARAQYQDKLARQRYEDQLKQQQLLNEENLRKQEESVQKQEAIRRATVEREMELRHKNEMLRVEAEARARAKADRENADIIREQIRLKAAEHRQTILESIRTAGTLFGEGFRAFVTDWDKVTATVAGLTLLAVGVYSAKNATSVAGRYIEARLGKPSLVRETSRISVLEALRHPIQVSRRLVSRPQDALEGVILSPSLEARVRDIAIATRNTKKNKSLYRNVLMYGPPGTGKTLFAKKLALHSGMDYAIMTGGDVAPMGREGVTAMHKVFDWASTSRRGLLLFVDEADAFLRKRATEKISEDLRATLNAFLHRTGQHSNKFMLVLASNQPEQFDWAINDRIDEMVCFALPQREERERLVRMYFDKYVLKPATEGKQRLKVAQFDYGKKCSEVAQLTAGMSGREIAQLAVAWQAMAYSSEDGVLTEAMMDARVQDAVQQHQQKMQWLKVERPDSEASKPPHPSLLSC

Variants of B1 are the subject of the assay. Description: native gel electrophoresis (-DTT), anti-Flag immunoblot, oligomer band quantified. As to conditions: with itself, H9c2 cells, n = 3, mean ± SEM, parent: 1, read off a plot.
With chain 1 K134Q, the response amounted to 0.16 arbitrary.

Take chain 1 K134A: the response was found to be 0.42 arbitrary.

chain 1 K134E: the response was 1 arbitrary.
